Laboratory results from publication PMC9462884, “Tensin3 interaction with talin drives the formation of fibronectin-associated fibrillar adhesions” (The Journal of Cell Biology, 2022).

Target: T1, talin R11 (recombinant wild-type mouse talin1 fragment R11) (mouse, UniProt P26039 1974-2140)
T1 construct: talin1, mouse, R11 rod domain, residues 1,974–2,140; 15N-labelled for the NMR experiments; also called talin R11 domain
Test: ITC; 80 µM R11 in the cell, 1.2 mM peptide in the syringe; 20 mM sodium phosphate pH 6.5, 50 mM NaCl, 0.5 mM TCEP, 25°C; single-site binding model
Settings: both partners purified

T1 sequence (P26039 1974-2140): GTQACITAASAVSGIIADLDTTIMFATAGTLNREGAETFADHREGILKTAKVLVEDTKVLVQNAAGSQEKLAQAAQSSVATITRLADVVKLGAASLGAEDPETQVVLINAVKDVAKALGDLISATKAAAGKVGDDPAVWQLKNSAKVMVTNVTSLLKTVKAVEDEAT

B1: tensin3 H1 peptide (peptide)
chain: TLDIDQSIEQLNRLILELDPT
modifications: synthetic peptide; terminal capping not stated. Limits conflict in the text: methods give 692-712 (used here, from the peptide purchase description and close to the predicted helix 690-710), results …
Work on B1 yielded a Kd of 17 µM and a dH of 4.8 kcal/mol.
